Columns and labels:
XPG = molecular target: T1, XPG (Homo sapiens, UniProt P28715 P28715:1-1186); test: EMSA; 41 nM XPG gives slowly migrating complex; displaced by PC4; 110 mM KCl, 1 mM EDTA, pH 7.5, room temp; conditions: tags: expressed in High5 insect cells (pFASTBAC); label: 5'-32P on 10T-strand; duplex with central 10-nt unpaired bubble
T1 sequence: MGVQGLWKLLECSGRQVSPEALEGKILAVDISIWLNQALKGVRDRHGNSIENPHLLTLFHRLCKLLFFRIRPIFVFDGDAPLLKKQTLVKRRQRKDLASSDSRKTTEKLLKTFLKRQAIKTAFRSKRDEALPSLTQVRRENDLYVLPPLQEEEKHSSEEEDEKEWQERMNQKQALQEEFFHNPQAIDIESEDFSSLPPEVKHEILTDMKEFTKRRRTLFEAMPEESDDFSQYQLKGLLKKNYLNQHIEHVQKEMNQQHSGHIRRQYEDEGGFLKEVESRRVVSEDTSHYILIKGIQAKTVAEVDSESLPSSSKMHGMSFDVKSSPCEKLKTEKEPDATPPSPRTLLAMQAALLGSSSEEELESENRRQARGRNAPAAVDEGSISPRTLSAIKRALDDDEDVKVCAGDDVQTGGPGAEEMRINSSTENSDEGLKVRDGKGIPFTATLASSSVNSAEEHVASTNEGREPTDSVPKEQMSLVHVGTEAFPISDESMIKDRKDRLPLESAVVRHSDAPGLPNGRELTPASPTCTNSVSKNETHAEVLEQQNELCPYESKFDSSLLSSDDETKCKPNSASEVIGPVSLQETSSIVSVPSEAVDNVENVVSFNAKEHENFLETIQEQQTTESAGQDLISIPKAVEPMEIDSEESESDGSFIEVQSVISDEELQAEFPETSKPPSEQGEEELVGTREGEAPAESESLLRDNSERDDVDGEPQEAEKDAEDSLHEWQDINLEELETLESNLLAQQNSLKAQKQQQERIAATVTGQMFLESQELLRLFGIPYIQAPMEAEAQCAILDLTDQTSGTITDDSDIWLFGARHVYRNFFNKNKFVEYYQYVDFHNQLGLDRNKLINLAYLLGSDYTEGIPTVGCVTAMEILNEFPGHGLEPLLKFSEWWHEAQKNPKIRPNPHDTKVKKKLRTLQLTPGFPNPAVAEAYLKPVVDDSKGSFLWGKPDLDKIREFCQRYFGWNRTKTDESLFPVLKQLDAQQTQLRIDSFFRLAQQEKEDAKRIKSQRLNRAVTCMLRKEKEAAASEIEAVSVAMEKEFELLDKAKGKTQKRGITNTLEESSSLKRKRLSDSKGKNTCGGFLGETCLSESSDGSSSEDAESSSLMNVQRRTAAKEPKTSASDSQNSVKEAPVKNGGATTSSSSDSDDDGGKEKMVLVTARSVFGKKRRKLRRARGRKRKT
Description: (§1) 2.5 nM of the 10-nt bubble DNA substrate was incubated with 41 nM of purified XPG (lanes 2-7) or without XPG (lanes 9-13). Reaction mixtures were supplemented with 44 nM (lanes 3 and 9), 88 nM (lanes 4 and 10), 176 nM (lanes 5 and 11), 352 nM (lanes 6 and 12) and 704 nM (lanes 7 and 13) of human PC4 protein, respectively. Samples were loaded onto a 4.5% native gel and electrophoresis was conducted at 150 V for 2 hours at 4° C. The gel was dried and exposed on a phosphorimager screen. No protein was added in lanes 1 and 8.
(§2) The 10T-strand was 5′-end labeled with T4 polynucleotide kinase and [γ-³²P]ATP and annealed with the complementary 10C-strand by heating for 3 minutes at 90° C. and cooled to room temperature. […] The gels were visualized by phosphorimager and analyzed using ImageQuant™ software (Molecular Dynamics).
(§3) To determine if XPG affects PC4 interaction with DNA bubbles, we pre-incubated the 10 bp bubble DNA with XPG and then added PC4 at varying concentrations (FIG. 9A, lanes 3-7). XPG strongly stimulated PC4 binding, with complete binding achieved at the lowest PC4 protein concentration analyzed (44 nM, lane 3) as compared to 352 nM in the absence of XPG Correspondingly, the tetramer-bound complex appears at lower concentrations (352 nM, lane 6) in the presence of XPG In no case did we observe a trimeric complex of XPG, PC4, and DNA. […]

[1] = molecular target: PC4 (full length wild type) (Homo sapiens, UniProt P53999 SEQ:1-127); test: EMSA; complete binding at 352 nM PC4 without XPG; second shifted band at 704 nM; 2.5 nM DNA, 110 mM KCl, 1 mM EDTA, poly(dI-dC), pH 7.5, room temp; with XPG (41 nM) present complete binding at 44 nM; conditions: tags: expressed in E. coli BL21(DE3); chain copies: 2 (inferred); label: 5'-32P on 10T-strand; duplex with central 10-nt unpaired bubble
Description: as §1, §2, §3

B1: 10-nt bubble DNA (10T/10C) (structured_DNA)
DNA 1: GGGCAGACAACGTGGCGCTGTTTTTTTTTTGTGTCCTAGCACAGCGTATG
DNA 2: CATACGCTGTGCTAGGACACCCCCCCCCCCCAGCGCCACGTTGTCTGCCC
binding result (XPG): binds | binding result [1]: binds
